The values that follow come from publication PMC8003079, “Virus-Like Particles Produced Using the Brome Mosaic Virus Recombinant Capsid Protein Expressed in a Bacterial System” (International Journal of Molecular Sciences, 2021).

Series [1] concerns the molecule itself. In words: MST; labelled rCP (RED-NHS 647, 50 nM) titrated with unlabelled rCP (from 15 uM); 50 mM Tris pH 7.5, 5 mM MgCl2, 300 mM NaCl; step of self-association not stated.
Series [2] deals with the molecule itself. Description: MST; labelled rCP (RED-NHS 647, 50 nM) titrated with unlabelled rCP (from 15 uM); 50 mM Tris pH 8.5, 5 mM MgCl2, 150 mM NaCl; step of self-association not stated.
Series [3] deals with the molecule itself. In words: MST; labelled rCP (RED-NHS 647, 50 nM) titrated with unlabelled rCP (from 15 uM); 50 mM Tris pH 7.5, 5 mM MgCl2, 1000 mM NaCl; step of self-association not stated.
Series [4] concerns the molecule itself. Description: MST; labelled rCP (RED-NHS 647, 50 nM) titrated with unlabelled rCP (from 15 uM); 50 mM Tris pH 6.8, 5 mM MgCl2, 150 mM NaCl; step of self-association not stated.
Series [5] deals with the molecule itself. In words: MST; labelled rCP (RED-NHS 647, 50 nM) titrated with unlabelled rCP (from 15 uM); 50 mM Tris pH 7.5, 5 mM MgCl2, 600 mM NaCl; step of self-association not stated.
Series [6] concerns the molecule itself. Description: cross-linking; 5 mM DSS, rCP in MST buffer pH 7.5; 5, 10, 15 and 30 min; SDS-PAGE.
Series [7] concerns the molecule itself. In words: MST; labelled rCP (RED-NHS 647, 50 nM) titrated with unlabelled rCP (from 15 uM); 50 mM Tris pH 7.5, 5 mM MgCl2, 150 mM NaCl; step of self-association not stated.
Series [8] deals with the molecule itself. Description: cryo-TEM imaging; empty VLPs assembled without cargo by two-step dialysis; vitrified samples, 120 kV.

B1: recombinant brome mosaic virus (BMV) capsid protein (natural protein)
chain: MSTSGTGKMTRAQRRAAARRNRWTARVQPVIVEPLAAGQGKAIKAIAGYSISKWEASSDAITAKATNAMSITLPHELSSEKNKELKVGRVLLWLGLLPSVAGRIKACVAEKQAQAEAAFQVALAVADSSKEVVAAMYTDAFRGATLGDLLNLQIYLYASEAVPAKAVVVHLEVEHVRPTFDDFFTPVYR
notes: brome mosaic virus capsid (coat) protein; In the MST assay one copy was labelled with Monolith NT Protein Labeling Kit RED-NHS 647 and titrated with unlabelled rCP; also called rCP; CP; source: E. coli Rosetta 2(DE3)pLysS, purified (Ni-NTA, TEV digestion, second Ni-NTA); not shown: His tag (inferred from Ni-NTA purification; vector pMCSG48), N-terminal, cleaved
By Kd is commonly meant the concentration at which binding is half-saturated. Broadly, the stoichiometry N is a count of units in the complex or per binding partner. With B1, the Kd in series [1] was 62 nM; in series [2], 175 nM; in series [3], 111 nM; in series [4], 6.8 nM; in series [5], 72 nM; in series [7] it was 35 nM. For the same protein, in series [6], the “stoichiometry N” value turned out to be 2.

B2: mutated BMV capsid protein (L123D and F183T) (natural protein, brome mosaic virus)
chain: MSTSGTGKMTRAQRRAAARRNRWTARVQPVIVEPLAAGQGKAIKAIAGYSISKWEASSDAITAKATNAMSITLPHELSSEKNKELKVGRVLLWLGLLPSVAGRIKACVAEKQAQAEAAFQVADAVADSSKEVVAAMYTDAFRGATLGDLLNLQIYLYASEAVPAKAVVVHLEVEHVRPTFDDTFTPVYR
notes: brome mosaic virus capsid (coat) protein with two designed mutations; also called rCP mutant; mutated rCP; source: E. coli Rosetta 2(DE3)pLysS, purified as the wild-type BMV CP (Ni-NTA, TEV digestion, second Ni-NTA); not shown: His tag (inferred from Ni-NTA purification; vector pMCSG48), N-terminal, cleaved
In the case of B2, the binding result in series [8] is “binds”.
